According to PMC2784926:

Target: β-catenin (UniProt P35222)
Assay: GST pull-down after in vitro kinase reaction
Settings: reference: WT His-α-catenin with CK2α; sites S641

binding against the reference: stronger
Substance: α-catenin (from UniProt P35221) His-α-catenin S641A with CK2α
